Source: patent publication US20220089647A1 (FUJIFILM, published 2022)
Starred links: 1 amine or outer side, 2 acyl side, 3 side chain; linkers in the order of their positions; H or OH if unused. Positions of bridges follow the written chain, without caps; N, C: chain ends. Non-standard residues stand in square brackets, D forms with d. Primed or numbered codes have the meaning given here. No end group written: not given here. Dab(acetyl)″ = 2-amino-4-(acetylamino)butanoic acid, acetyl CH3 carbon bonded to the S of Hcy (S-CH2-C(=O)-NH-), O=C(C[*:3])NCC[C@H](N[*:1])C(=O)[*:2]; Dab(acetyl) = 2-amino-4-acetylamino-butanoic acid residue (N-γ-acetyl-diaminobutyric acid), CC(=O)NCC[C@H](N[*:1])C(=O)[*:2]; Dap(acetyl) = 2-amino-3-acetylamino-propanoic acid residue, CC(=O)NC[C@H](N[*:1])C(=O)[*:2]; COCH2 = acetyl group that carries the bridge; hCys = N[C@@H](CCS)C(=O)O; Dab = NCC[C@H](N)C(=O)O

B1: Cyclic peptide 142 (peptide)
peptide: KKKA[Dab(acetyl)]VPRGDTFACA
modifications: thioether 5-14
B2: Cyclic peptide 143 (peptide)
peptide: KKK[Dab(acetyl)]VPRGDNFC
modifications: thioether 4-12
B3: Cyclic peptide 159 (peptide)
peptide: KKK[hCys]TPRGDTFA[Dab](COCH2)A
modifications: thioether 4-13
B4: Cyclic peptide 158 (peptide)
peptide: KKKA[hCys]TPRGDTFA[Dab(acetyl)]
modifications: thioether 5-14
B5: Cyclic peptide 164 (peptide)
peptide: KKKA[hCys]VPRGDTFA[Dab](COCH2)
modifications: thioether 5-14
B6: Cyclic peptide 141 (peptide)
peptide: KKK[Dab(acetyl)]VPRGDTFAC
modifications: thioether 4-13
B7: Cyclic peptide 144 (peptide)
peptide: KKK[hCys]DPRGDTFA[Dab(acetyl)]
modifications: thioether 4-13
B8: Cyclic peptide 147 (peptide)
peptide: KKK[hCys]TPRGDTFA[Dab(acetyl)]
modifications: thioether 4-13
B9: Cyclic peptide 149 (peptide)
peptide: KKK[hCys]VSRGDTFA[Dab(acetyl)]
modifications: thioether 4-13
B10: Cyclic peptide 145 (peptide)
peptide: KKK[hCys]EPRGDTFA[Dab(acetyl)]
modifications: thioether 4-13
B11: Cyclic peptide 152 (peptide)
peptide: KKK[hCys]VPRGDTFG[Dab(acetyl)]
modifications: thioether 4-13
B12: Cyclic peptide 153 (peptide)
peptide: KKK[hCys]VPRGDTFS[Dab(acetyl)]
modifications: thioether 4-13
B13: Cyclic peptide 150 (peptide)
peptide: KKK[hCys]VTRGDTFA[Dab(acetyl)]
modifications: thioether 4-13
B14: Cyclic peptide 146 (peptide)
peptide: KKK[hCys]LPRGDTFA[Dab(acetyl)]
modifications: thioether 4-13
B15: Cyclic peptide 155 (peptide)
peptide: KKK[hCys]TTRGDTFA[Dab(acetyl)]
modifications: thioether 4-13
B16: Cyclic peptide 151 (peptide)
peptide: KKK[hCys]VPRGDVFA[Dab(acetyl)]
modifications: thioether 4-13
B17: Cyclic peptide 157 (peptide)
peptide: KKK[hCys]TTRGDSFA[Dab(acetyl)]
modifications: thioether 4-13
B18: Cyclic peptide 148 (peptide)
peptide: KKK[hCys]YPRGDTFA[Dab(acetyl)]
modifications: thioether 4-13
B19: Cyclic peptide 160 (peptide)
peptide: KKKA[hCys]TPRGDTFA[Dab](COCH2)A
modifications: thioether 5-14
B20: Cyclic peptide 49 (peptide)
peptide: KKK[hCys]EPRGDNYR[Dab(acetyl)″]-NH2
modifications: thioether 4-13; N-terminus assumed
SMILES: N=C(N)NCCC[C@@H]1NC(=O)[C@H](Cc2ccc(O)cc2)NC(=O)[C@H](CC(N)=O)NC(=O)[C@H](CC(=O)O)NC(=O)CNC(=O)[C@H](CCCNC(=N)N)NC(=O)[C@@H]2CCCN2C(=O)[C@H](CCC(=O)O)NC(=O)[C@@H](NC(=O)[C@H](CCCCN)NC(=O)[C@H](CCCCN)NC(=O)[C@@H](N)CCCCN)CCSCC(=O)NCC[C@@H](C(N)=O)NC1=O
B21: Cyclic peptide 47 (peptide)
peptide: KKKA[Dap(acetyl)]EPRGDNYR[hCys]
modifications: thioether 5-14
B22: Cyclic peptide 42 (peptide)
peptide: KKKA[hCys]EPRGDNYR[Dab(acetyl)″]D
modifications: thioether 5-14
B23: Cyclic peptide 38 (peptide)
peptide: KKKD[hCys]EPRGDNYR[Dab](COCH2)D
modifications: thioether 5-14
B24: Cyclic peptide 37 (peptide)
peptide: KKKG[hCys]EPRGDNYR[Dab](COCH2)D
modifications: thioether 5-14
B25: Cyclic peptide 36 (peptide)
peptide: KKKA[hCys]EPRGDNYE[Dab](COCH2)D
modifications: thioether 5-14
B26: Cyclic peptide 43 (peptide)
peptide: KKKA[hCys]EPRGDNYR[Dab(acetyl)″]E
modifications: thioether 5-14
B27: Cyclic peptide 29 (peptide)
peptide: KKKA[hCys]VPRGDNYR[Dab](COCH2)D
modifications: thioether 5-14
B28: Cyclic peptide 41 (peptide)
peptide: KKKA[hCys]EPRGDNYR[Dab(acetyl)″]A
modifications: thioether 5-14
B29: Cyclic peptide 40 (peptide)
peptide: KKKA[hCys]EPRGDNYR[Dab(acetyl)″]G
modifications: thioether 5-14
B30: Cyclic peptide 53 (peptide)
peptide: KKKA[Dap(acetyl)]EPRGDNYR[hCys]-NH2
modifications: thioether 5-14
B31: Cyclic peptide 73 (peptide)
peptide: KKKGXIPRGDXFRXA
modifications: not fully specified; KKKG-(Hcy)-IPRGD-(HmS)-FR(Dab(acetyl))A; HmS = homoserine; thioether bond Hcy-Dab(acetyl)
B32: Cyclic peptide 52 (peptide)
peptide: KKK[Dap(acetyl)]EPRGDNYR[hCys]-NH2
modifications: thioether 4-13
B33: Cyclic peptide 44 (peptide)
peptide: KKK[hCys]EPRGDNYR[Dab(acetyl)″]
modifications: thioether 4-13
B34: Cyclic peptide 8 (peptide)
peptide: KKKGXPRGDNFRXA
modifications: not fully specified; KKKG-(Hcy)-PRGDNFR(Dab(acetyl))A; thioether bond Hcy-Dab(acetyl)
B35: Cyclic peptide 45 (peptide)
peptide: KKKA[hCys]EPRGDNYR[Dab(acetyl)″]
modifications: thioether 5-14
B36: Cyclic peptide 6 (peptide)
peptide: KKKG[hCys]IPRGDNF[Dab(acetyl)″]A
modifications: thioether 5-13
B37: Cyclic peptide 46 (peptide)
peptide: KKK[Dap(acetyl)]EPRGDNYR[hCys]
modifications: thioether 4-13

target: T1, human integrin αvβ5 (human, UniProt P06756 31-992; P18084 24-719, limits assumed); assay: SPR, Biacore 3000, peptide immobilised; A = KD 50 nM or less
T1 construct: Heterodimer flowed as analyte at 30, 100, 300 and 1,000 nM in HEPES buffer with 5 mM MgCl2
T1 sequence (P06756 31-992 limits assumed, chain 1 of 2): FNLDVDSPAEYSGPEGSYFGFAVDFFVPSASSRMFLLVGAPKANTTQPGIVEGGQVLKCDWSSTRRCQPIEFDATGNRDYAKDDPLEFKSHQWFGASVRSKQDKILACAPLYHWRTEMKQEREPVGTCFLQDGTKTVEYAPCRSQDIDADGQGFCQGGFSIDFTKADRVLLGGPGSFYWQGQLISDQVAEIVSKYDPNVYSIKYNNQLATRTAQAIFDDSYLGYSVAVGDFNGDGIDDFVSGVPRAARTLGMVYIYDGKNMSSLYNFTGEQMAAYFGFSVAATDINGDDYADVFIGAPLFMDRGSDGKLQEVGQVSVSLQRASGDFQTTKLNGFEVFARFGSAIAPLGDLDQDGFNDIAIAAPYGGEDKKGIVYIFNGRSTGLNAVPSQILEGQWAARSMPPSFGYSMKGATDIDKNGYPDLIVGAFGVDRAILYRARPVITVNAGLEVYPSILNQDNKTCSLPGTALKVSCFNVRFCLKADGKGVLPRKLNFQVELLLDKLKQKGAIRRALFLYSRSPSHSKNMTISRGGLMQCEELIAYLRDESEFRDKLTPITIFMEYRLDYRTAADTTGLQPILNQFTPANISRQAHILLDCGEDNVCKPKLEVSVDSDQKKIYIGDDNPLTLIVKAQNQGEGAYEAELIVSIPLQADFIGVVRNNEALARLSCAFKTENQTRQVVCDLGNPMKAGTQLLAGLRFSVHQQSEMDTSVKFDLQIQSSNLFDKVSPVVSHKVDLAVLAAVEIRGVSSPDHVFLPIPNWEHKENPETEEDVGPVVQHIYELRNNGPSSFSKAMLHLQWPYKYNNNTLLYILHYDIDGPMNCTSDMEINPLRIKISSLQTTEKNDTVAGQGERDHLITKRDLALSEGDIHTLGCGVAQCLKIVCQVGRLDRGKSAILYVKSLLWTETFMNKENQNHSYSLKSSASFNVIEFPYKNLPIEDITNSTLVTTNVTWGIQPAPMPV
T1 sequence (P18084 24-719 limits assumed, chain 2 of 2): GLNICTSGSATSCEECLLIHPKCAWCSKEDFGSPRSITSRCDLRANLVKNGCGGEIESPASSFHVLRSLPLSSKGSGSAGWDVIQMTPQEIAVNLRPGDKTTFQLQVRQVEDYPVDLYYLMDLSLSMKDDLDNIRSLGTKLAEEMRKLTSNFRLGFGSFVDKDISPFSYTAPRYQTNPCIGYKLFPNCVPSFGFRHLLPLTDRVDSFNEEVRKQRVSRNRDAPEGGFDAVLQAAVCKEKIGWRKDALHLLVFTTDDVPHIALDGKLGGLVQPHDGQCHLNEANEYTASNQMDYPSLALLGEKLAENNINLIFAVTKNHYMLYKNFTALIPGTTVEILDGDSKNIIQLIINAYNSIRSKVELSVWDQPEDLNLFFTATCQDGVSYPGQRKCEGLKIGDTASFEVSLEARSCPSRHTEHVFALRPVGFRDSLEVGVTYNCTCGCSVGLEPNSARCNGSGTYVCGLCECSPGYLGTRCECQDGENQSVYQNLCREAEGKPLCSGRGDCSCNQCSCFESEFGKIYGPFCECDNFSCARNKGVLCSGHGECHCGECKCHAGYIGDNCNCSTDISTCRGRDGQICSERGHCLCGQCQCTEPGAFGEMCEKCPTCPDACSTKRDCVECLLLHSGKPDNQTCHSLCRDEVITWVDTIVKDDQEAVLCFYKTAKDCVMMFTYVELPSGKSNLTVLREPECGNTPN

dissociation constant (KD)	Binder
≤ 50 nM	B1
≤ 50 nM	B2
≤ 50 nM	B3
≤ 50 nM	B4
≤ 50 nM	B5
≤ 50 nM	B6
≤ 50 nM	B7
≤ 50 nM	B8
≤ 50 nM	B9
≤ 50 nM	B10
≤ 50 nM	B11
≤ 50 nM	B12
≤ 50 nM	B13
≤ 50 nM	B14
≤ 50 nM	B15
≤ 50 nM	B16
≤ 50 nM	B17
≤ 50 nM	B18
≤ 50 nM	B19

target: T1, human integrin αvβ5; assay: SPR, Biacore 3000, peptide immobilised; B = KD more than 50 nM and 100 nM or less
Experimental: However, only for the cyclic peptides 125, 126, and 127, in which the number of lysine residues having an amino group as the immobilizing functional group was zero, the amount of the sample solution to be supplied to the sensor chip was set to 500 μL instead of 20 μL. Further, 70 μL of the mixed aqueous solution of 0.2 M EDC and 0.04 M NHS was added to another flow channel of the same sensor chip without immobilizing the sample, and then blocking treatment and washing treatment were carried out. Hereinafter, the obtained immobilization-treated sensor chip is referred to as an “immobilization-treated sensor chip A”.
After adding human integrin αvβ5 for 10 minutes at 25° C., which was diluted to 30 nM using a HEPES buffer solution to which magnesium chloride was added to 5 mM, in each flow channel of the immobilization-treated sensor chip A prepared in (1) above, the same HEPES buffer solution (containing 5 mM magnesium chloride) was allowed to flow as a running buffer for 30 minutes, and measurement was carried out with Biacore 3000. Then, a regeneration treatment of removing human integrin αvβ5 was carried out by allowing a 0.5 M EDTA aqueous solution to flow through each flow channel for 10 minutes. Further, the above-described measurement process consisting of adding integrin for 10 minutes, allowing a running buffer to flow for 30 minutes, carrying out measurement with Biacore 3000, and carrying out regeneration treatment with 0.5 M EDTA aqueous solution was carried out in the same manner for 100 nM human integrin αvβ5, 300 nM human integrin αvβ5, and 1,000 nM human integrin αvβ5. Dissociation constant between the cyclic peptide and human integrin αvβ5 was calculated from the difference between the value measured by Biacore 3000 in the flow channel immobilized with the cyclic peptide and the value measured by Biacore 3000 in the flow channel unimmobilized with the cyclic peptide, in a case where each concentration of human integrin αvβ5 was allowed to flow, and the integrin binding property was evaluated according to the following evaluation standards. It is preferable that the evaluation result satisfies the evaluation standard A, B, or C.

dissociation constant (KD)	dissociation constant	Binder
50 to 100 nM	–	B20
50 to 100 nM	–	B21
50 to 100 nM	–	B22
50 to 100 nM	–	B23
50 to 100 nM	–	B24
50 to 100 nM	–	B25
50 to 100 nM	–	B26
50 to 100 nM	–	B27
50 to 100 nM	–	B28
50 to 100 nM	–	B29
50 to 100 nM	–	B30
–	50 to 100 nM	B31
50 to 100 nM	–	B32
50 to 100 nM	–	B33
50 to 100 nM	–	B34
50 to 100 nM	–	B35
50 to 100 nM	–	B36
50 to 100 nM	–	B37
